# Assay results: article PMC12176259, “Bacterial transcriptional repressor NrdR – a flexible multifactorial nucleotide sensor” (The Febs Journal, 2025)
# Values joined by “and” are separate entries in the source; they are usually repeats but may differ in a detail not shown here. Equal entries are not always repeated.
# Target: T1, NrdR (EcoNrdR) (Escherichia coli K-12 MG1655) (UniProt P0A8D0)
# T1 sequence: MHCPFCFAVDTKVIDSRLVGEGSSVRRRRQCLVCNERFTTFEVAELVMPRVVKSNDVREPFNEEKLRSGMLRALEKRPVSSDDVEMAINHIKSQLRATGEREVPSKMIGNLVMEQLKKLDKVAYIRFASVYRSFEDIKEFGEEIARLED
# Experiment: MST
# Conditions: 17 mM Tris-HCl pH 8.6 (room temperature), 100 mM NaCl, 7 mM MgCl2, 0.33 mM TCEP, 0.025% Tween-20, nucleotide effectors 1 mM each, 5 nM Cy5-dsDNA, low values mean tight binding
row,Sequence,Kd
1,ACTATTTGCTATATATTGTGTGGTTGAATCTTTTTTCAACTACATCTAGTATCTCTG (double strand) [nrdHIEF promoter (nrdEF_Cy5)],0.138 µM and 0.328 µM and 0.187 µM
2,CATACCCCCTATATATAGTGTTCTAAGCAGCTTCCCGTACTACAGGTAGTCTGCATG (double strand) [nrdAB promoter box 1+2],0.128 µM and 0.113 µM and 0.096 µM
3,GCAAAGCACTATATATAGACTTTAAAATGCGTCCCAACCCAATATGTTGTATTAATC (double strand) [nrdDG promoter],0.16 µM and 0.171 µM and 0.152 µM
